# Patent US20210380703A1 (RIGEL PHARMACEUTICALS, published 2021)
# What was measured:
# [1] = target: T1, biotinylated goat anti-human kappa light chain; assay: ELISA, positive control
# T1 construct: positive control of the ELISA
# How it was run: (§1)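 ELISA measured binding of ACVR2A-specific monoclonal antibodies to human and mouse ACVR2A. Biotinylated goat anti-human kappa light chain served as positive control and human Fc as negative control.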
# mouse ACVR2A = target: T2, mouse ACVR2A (mouse, UniProt P27038 20-135, limits assumed); assay: ELISA
# T2 construct: coated antigen of the initial ELISA
# T2 sequence (P27038 20-135 limits assumed): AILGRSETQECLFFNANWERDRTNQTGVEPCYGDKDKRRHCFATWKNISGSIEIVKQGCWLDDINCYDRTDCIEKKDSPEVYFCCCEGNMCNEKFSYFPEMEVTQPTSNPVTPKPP
# How it was run: as §1
# human ACVR2A = target: T3, human ACVR2A (human, UniProt P27037 20-135, limits assumed); assay: ELISA
# T3 construct: coated antigen of the initial ELISA; also called activin receptor, type II A
# T3 sequence (P27037 20-135 limits assumed): as the sequence (P27038 20-135 limits assumed) above, with R20K, I73V counted along it
# How it was run: as §1
# Note: test concentration or dose not given here.
Binder,optical density [1] [OD],optical density (mouse ACVR2A) [OD],optical density (human ACVR2A) [OD]
"373_H03 (antibody, V domains shown, Group III) VH: EVQLLESGGGLVQPGGSLRLSCAASGFTFSSYSMNWVRQAPGKGLEWVSGINYNSGYKSYADSVKGRFTISRDNSKNTLYLQMNSLRAEDTAVYYCARGANWHDTALDYWGQGTLVTVSS VL: DIQMTQSPSSLSASVGDRVTITCRASQSILSYLNWYQQKPGKAPKLLIYATTSRASGVPSRFSGSGSGTDFTLTISSLQPEDFATYYCQQSYENPLTFGGGTKVEIK",3.22,3.29,3.27
"373_H07 (antibody, V domains shown, Group III) VH: EVQLLESGGGLVQPGGSLRLSCAASGFTFSSYSMNWVRQAPGKGLEWVAGINYNGGYTSYADSVKGRFTISRDNSKNTLYLQMNSLRAEDTAVYYCARGANWHDTHLDYWGQGTLVTVSS VL: DIQMTQSPSSLSASVGDRVTITCRASQSIVTYLNWYQQKPGKAPKLLIYAASSLQSGVPSRFSGSGSGTDFTLTISSLQPEDFATYYCQQSYDSPLTFGGGTKVEIK",3.23,3.27,3.25
"373_H09 (antibody, V domains shown, Group III) VH: EVQLLESGGGLVQPGGSLRLSCAASGFTFSSYGMNWVRQAPGKGLEWVASINYNSGYKSYADSVKGRFTISRDNSKNTLYLQMNSLRAEDTAVYYCARGANWHDTHLDYWGQGTLVTVSS VL: DIQMTQSPSSLSASVGDRVTITCRASQSIITYLNWYQQKPGKAPKLVIYAATSRASGVPSRFSGSGSGTDFTLTISSLQPEDFATYYCQQSDDSPLTFGGGTKVEIK",3.08,1.35,0.93
"374_A06 (antibody, V domains shown, Group III) VH: EVQLLESGGGLVQPGGSLRLSCAASGFTFSSYSMNWVRQAPGKGLEWVSSINYNSGYTSYADSVKGRFTISRDNSKNTLYLQMNSLRAEDTAVYYCARGANWHDTHLDYWGQGTLVTVSS VL: DIQMTQSPSSLSASVGDRVTITCRASQSILSYLNWYQQKPGKAPKLVIYAATSRASGVPSRFSGSGSGTDFTLTISSLQPEDFATYYCQQSYDSPLTFGGGTKVEIK",3,3.75,3.77
"374_A09 (antibody, V domains shown, Group III) VH: EVQLLESGGGLVQPGGSLRLSCAASGFTFSSYSMNWVRQAPGKGLEWVSSINYNGGYKGYADSVKGRFTISRDNSKNTLYLQMNSLRAEDTAVYYCARGANWHDTHLDYWGQGTLVTVSS VL: DIQMTQSPSSLSASVGDRVTITCRASQSILTYVNWYQQKPGKAPKLLIYAATSLASGVPSRFSGSGSGTDFTLTISSLQPEDFATYYCQQSYDSPLTFGGGTKVEIK",2.97,3.64,3.58
"374_B03 (antibody, V domains shown, Group III) VH: EVQLLESGGGLVQPGGSLRLSCAASGFTFDSYSMNWVRQAPGKGLEWVSGINYNGGYTSYADSVKGRFTISRDNSKNTLYLQMNSLRAEDTAVYYCARGANWHDTALDYWGQGTLVTVSS VL: DIQMTQSPSSLSASVGDRVTITCRASQSILTYLNWYQQKPGKAPKLVIYAATSRASGVPSRFSGSGSGTDFTLTISSLQPEDFATYYCQQSYDSPLTFGGGTKVEIK",3.07,3.7,3.69
"374_B05 (antibody, V domains shown, Group III) VH: EVQLLESGGGLVQPGGSLRLSCAASGFTFDSYSMNWVRQAPGKGLEWVSGINYNSGYTSYADSVKGRFTISRDNSKNTLYLQMNSLRAEDTAVYYCARGANWHDTALDYWGQGTLVTVSS VL: DIQMTQSPSSLSASVGDRVTITCRASQSIVSYLNWYQQKPGKAPKLLIYAATSRHSGVPSRFSGSGSGTDFTLTISSLQPEDFATYYCQQSYESPLTFGGGTKVEIK",3.16,3.65,3.68
"374_B08 (antibody, V domains shown, Group III) VH: EVQLLESGGGLVQPGGSLRLSCAASGFTFDSYSMNWVRQAPGKGLEWVAGINYNGGYTSYADSVKGRFTISRDNSKNTLYLQMNSLRAEDTAVYYCARGANWHDTALDYWGQGTLVTVSS VL: DIQMTQSPSSLSASVGDRVTITCRASQSIVSYVNWYQQKPGKAPKLLIYAATSRHSGVPSRFSGSGSGTDFTLTISSLQPEDFATYYCQQSYELPLTFGGGTKVEIK",3.12,3.63,3.6
"374_B10 (antibody, V domains shown, Group III) VH: EVQLLESGGGLVQPGGSLRLSCAASGFTFSSYSMNWVRQAPGKGLEWVSSINYNSGYTSYADSVKGRFTISRDNSKNTLYLQMNSLRAEDTAVYYCARGANWHDTHLDYWGQGTLVTVSS VL: DIQMTQSPSSLSASVGDRVTITCRASQSILTYVNWYQQKPGKAPKLVIYAATSLASGVPSRFSGSGSGTDFTLTISSLQPEDFATYYCQQSYDTPLTFGGGTKVEIK",3,3.69,3.71
"374_C01 (antibody, V domains shown, Group III) VH: EVQLLESGGGLVQPGGSLRLSCAASGFTFDSYGMNWVRQAPGKGLEWVSGINYNSGYKSYADSVKGRFTISRDNSKNTLYLQMNSLRAEDTAVYYCARGANWHDTALDYWGQGTLVTVSS VL: DIQMTQSPSSLSASVGDRVTITCRASQSILTYLNWYQQKPGKAPKLLIYAATSRASGVPSRFSGSGSGTDFTLTISSLQPEDFATYYCQQSYETPLTFGGGTKVEIK",3.08,2.93,2.69
"374_C09 (antibody, V domains shown, Group III) VH: EVQLLESGGGLVQPGGSLRLSCAASGFTFDSYGMNWVRQAPGKGLEWVSSINYNGGYKGYADSVKGRFTISRDNSKNTLYLQMNSLRAEDTAVYYCARGANWHDTHLDYWGQGTLVTVSS VL: DIQMTQSPSSLSASVGDRVTITCRASQSIVSYLNWYQQKPGKAPKLVIYAATSRASGVPSRFSGSGSGTDFTLTISSLQPEDFATYYCQQSYELPLTFGGGTKVEIK",3.14,3.51,3.43
"374_C12 (antibody, V domains shown, Group III) VH: EVQLLESGGGLVQPGGSLRLSCAASGFTFSSYSMNWVRQAPGKGLEWVAGINYNGGYKSYADSVKGRFTISRDNSKNTLYLQMNSLRAEDTAVYYCARGANWHDTALDYWGQGTLVTVSS VL: DIQMTQSPSSLSASVGDRVTITCRASQSILTYLNWYQQKPGKAPKLVIYAATSRASGVPSRFSGSGSGTDFTLTISSLQPEDFATYYCQQSDNSPLTFGGGTKVEIK",3.15,3.33,3.67
"374_D03 (antibody, V domains shown, Group III) VH: EVQLLESGGGLVQPGGSLRLSCAASGFTFDSYSMNWVRQAPGKGLEWVAGINYNGGYKSYADSVKGRFTISRDNSKNTLYLQMNSLRAEDTAVYYCARGANWHDTHLDYWGQGTLVTVSS VL: DIQMTQSPSSLSASVGDRVTITCRASQSIVTYLNWYQQKPGKAPKLLIYAATSRASGVPSRFSGSGSGTDFTLTISSLQPEDFATYYCQQSYDTPLTFGGGTKVEIK",3.02,3.48,3.3
"374_D05 (antibody, V domains shown, Group III) VH: EVQLLESGGGLVQPGGSLRLSCAASGFTFDSYSMNWVRQAPGKGLEWVSGINYNSGYTGYADSVKGRFTISRDNSKNTLYLQMNSLRAEDTAVYYCARGANWHDTHLDYWGQGTLVTVSS VL: DIQMTQSPSSLSASVGDRVTITCRASQSILTYLNWYQQKPGKAPKLLIYAATSRASGVPSRFSGSGSGTDFTLTISSLQPEDFATYYCQQSYDTPLTFGGGTKVEIK",3.15,3.56,3.43
